Patent US20210388116A1 (University of California, published 2021)
Where no end group is shown, it is not given here. The star is where a group is joined. Biotin = O=C1N[C@H]2[C@H](CS[C@H]2CCCCC(=O)*)N1

Tests used:
[1] = molecular target: T1, G6A/OxCE reaction product (biotin-GDGDGA peptide subjected to the OxCE modification procedure); experiment: peptide ELISA on streptavidin plates
T1 construct: Negative control peptide in which the C-terminal Lys is replaced with Ala
T1 peptide: Biotin-GDGDGA
Description: Biotinylated short peptides G6A-OH, G6K-OH (non-modified) or G6K-OxCE (modified with OxCE) were immobilized to streptavidin pre-coated plates (Eagle Biosciences, Amherst, N.H.), at 10 μg/mL in PBS, overnight at 4° C. After washing with PBS, AG23 was added at 1 μg/mL in 1% BSA-TBS and incubated at room temperature for 90 min. The remaining ELISA was completed as described above.

[2] = molecular target: T2, copper oxidized LDL (CuOxLDL) (human, UniProt P04114 28-4563, limits assumed, copper-oxidized; enriched in oxidized phospholipid (OxPL); positions not stated); experiment: chemiluminescent ELISA on plated antigen
T2 construct: A modified lipoprotein particle (protein plus lipid), prepared as in Gonen et al
Description: Representative gel and blots from 20 repeats. (B) Representative results of AG23 (0.125 μg/mL) binding to BSA, OxCE-BSA, MDA-LDL and CuOxLDL (5 μg/mL). Four different OxCE-BSA preparations were tested in 12 independent experiments, with AG23 concentrations ranging from […]. […] Mean±SD; one-way ANOVA with multiple comparisons; ****, P<0.0001. (C) Competition ELISA: AG23 (0.01 μg/mL) was preincubated in the absence or presence of increasing concentrations of non-modified KLH or OxCE-KLH. Immune complexes were spun down, and supernatants were tested for binding to OxCE-BSA (5 μg/mL). Each data point is the mean of two independent assays in technical triplicates. (D) AG23 (1 μg/mL) binding to 10 μg/mL of non-modified G6K-OH and G6A-OH peptides, and the peptides subjected to the OxCE covalent modification. […] Mean±SD; n=6 for G6K and n=2 for G6A, each in technical duplicates; one-way ANOVA with multiple comparisons; **, P<0.01. (E-F) AG23 (0.15 μg/mL) was preincubated overnight with non-modified (250 μg/mL) or OxCE-modified (10-250 μg/mL) BSA or GDGDGK-OH peptide. […] After washes, AG23 binding to the wells was measured. […]
Monoclonal antibody binding to an array of epitopes was measured by chemiluminescent ELISA as described in Gonen et al. In brief, wells were coated with antigens at 5 μg/mL in PBS overnight at 4° C. […]

T2 sequence (P04114 28-4563 limits assumed): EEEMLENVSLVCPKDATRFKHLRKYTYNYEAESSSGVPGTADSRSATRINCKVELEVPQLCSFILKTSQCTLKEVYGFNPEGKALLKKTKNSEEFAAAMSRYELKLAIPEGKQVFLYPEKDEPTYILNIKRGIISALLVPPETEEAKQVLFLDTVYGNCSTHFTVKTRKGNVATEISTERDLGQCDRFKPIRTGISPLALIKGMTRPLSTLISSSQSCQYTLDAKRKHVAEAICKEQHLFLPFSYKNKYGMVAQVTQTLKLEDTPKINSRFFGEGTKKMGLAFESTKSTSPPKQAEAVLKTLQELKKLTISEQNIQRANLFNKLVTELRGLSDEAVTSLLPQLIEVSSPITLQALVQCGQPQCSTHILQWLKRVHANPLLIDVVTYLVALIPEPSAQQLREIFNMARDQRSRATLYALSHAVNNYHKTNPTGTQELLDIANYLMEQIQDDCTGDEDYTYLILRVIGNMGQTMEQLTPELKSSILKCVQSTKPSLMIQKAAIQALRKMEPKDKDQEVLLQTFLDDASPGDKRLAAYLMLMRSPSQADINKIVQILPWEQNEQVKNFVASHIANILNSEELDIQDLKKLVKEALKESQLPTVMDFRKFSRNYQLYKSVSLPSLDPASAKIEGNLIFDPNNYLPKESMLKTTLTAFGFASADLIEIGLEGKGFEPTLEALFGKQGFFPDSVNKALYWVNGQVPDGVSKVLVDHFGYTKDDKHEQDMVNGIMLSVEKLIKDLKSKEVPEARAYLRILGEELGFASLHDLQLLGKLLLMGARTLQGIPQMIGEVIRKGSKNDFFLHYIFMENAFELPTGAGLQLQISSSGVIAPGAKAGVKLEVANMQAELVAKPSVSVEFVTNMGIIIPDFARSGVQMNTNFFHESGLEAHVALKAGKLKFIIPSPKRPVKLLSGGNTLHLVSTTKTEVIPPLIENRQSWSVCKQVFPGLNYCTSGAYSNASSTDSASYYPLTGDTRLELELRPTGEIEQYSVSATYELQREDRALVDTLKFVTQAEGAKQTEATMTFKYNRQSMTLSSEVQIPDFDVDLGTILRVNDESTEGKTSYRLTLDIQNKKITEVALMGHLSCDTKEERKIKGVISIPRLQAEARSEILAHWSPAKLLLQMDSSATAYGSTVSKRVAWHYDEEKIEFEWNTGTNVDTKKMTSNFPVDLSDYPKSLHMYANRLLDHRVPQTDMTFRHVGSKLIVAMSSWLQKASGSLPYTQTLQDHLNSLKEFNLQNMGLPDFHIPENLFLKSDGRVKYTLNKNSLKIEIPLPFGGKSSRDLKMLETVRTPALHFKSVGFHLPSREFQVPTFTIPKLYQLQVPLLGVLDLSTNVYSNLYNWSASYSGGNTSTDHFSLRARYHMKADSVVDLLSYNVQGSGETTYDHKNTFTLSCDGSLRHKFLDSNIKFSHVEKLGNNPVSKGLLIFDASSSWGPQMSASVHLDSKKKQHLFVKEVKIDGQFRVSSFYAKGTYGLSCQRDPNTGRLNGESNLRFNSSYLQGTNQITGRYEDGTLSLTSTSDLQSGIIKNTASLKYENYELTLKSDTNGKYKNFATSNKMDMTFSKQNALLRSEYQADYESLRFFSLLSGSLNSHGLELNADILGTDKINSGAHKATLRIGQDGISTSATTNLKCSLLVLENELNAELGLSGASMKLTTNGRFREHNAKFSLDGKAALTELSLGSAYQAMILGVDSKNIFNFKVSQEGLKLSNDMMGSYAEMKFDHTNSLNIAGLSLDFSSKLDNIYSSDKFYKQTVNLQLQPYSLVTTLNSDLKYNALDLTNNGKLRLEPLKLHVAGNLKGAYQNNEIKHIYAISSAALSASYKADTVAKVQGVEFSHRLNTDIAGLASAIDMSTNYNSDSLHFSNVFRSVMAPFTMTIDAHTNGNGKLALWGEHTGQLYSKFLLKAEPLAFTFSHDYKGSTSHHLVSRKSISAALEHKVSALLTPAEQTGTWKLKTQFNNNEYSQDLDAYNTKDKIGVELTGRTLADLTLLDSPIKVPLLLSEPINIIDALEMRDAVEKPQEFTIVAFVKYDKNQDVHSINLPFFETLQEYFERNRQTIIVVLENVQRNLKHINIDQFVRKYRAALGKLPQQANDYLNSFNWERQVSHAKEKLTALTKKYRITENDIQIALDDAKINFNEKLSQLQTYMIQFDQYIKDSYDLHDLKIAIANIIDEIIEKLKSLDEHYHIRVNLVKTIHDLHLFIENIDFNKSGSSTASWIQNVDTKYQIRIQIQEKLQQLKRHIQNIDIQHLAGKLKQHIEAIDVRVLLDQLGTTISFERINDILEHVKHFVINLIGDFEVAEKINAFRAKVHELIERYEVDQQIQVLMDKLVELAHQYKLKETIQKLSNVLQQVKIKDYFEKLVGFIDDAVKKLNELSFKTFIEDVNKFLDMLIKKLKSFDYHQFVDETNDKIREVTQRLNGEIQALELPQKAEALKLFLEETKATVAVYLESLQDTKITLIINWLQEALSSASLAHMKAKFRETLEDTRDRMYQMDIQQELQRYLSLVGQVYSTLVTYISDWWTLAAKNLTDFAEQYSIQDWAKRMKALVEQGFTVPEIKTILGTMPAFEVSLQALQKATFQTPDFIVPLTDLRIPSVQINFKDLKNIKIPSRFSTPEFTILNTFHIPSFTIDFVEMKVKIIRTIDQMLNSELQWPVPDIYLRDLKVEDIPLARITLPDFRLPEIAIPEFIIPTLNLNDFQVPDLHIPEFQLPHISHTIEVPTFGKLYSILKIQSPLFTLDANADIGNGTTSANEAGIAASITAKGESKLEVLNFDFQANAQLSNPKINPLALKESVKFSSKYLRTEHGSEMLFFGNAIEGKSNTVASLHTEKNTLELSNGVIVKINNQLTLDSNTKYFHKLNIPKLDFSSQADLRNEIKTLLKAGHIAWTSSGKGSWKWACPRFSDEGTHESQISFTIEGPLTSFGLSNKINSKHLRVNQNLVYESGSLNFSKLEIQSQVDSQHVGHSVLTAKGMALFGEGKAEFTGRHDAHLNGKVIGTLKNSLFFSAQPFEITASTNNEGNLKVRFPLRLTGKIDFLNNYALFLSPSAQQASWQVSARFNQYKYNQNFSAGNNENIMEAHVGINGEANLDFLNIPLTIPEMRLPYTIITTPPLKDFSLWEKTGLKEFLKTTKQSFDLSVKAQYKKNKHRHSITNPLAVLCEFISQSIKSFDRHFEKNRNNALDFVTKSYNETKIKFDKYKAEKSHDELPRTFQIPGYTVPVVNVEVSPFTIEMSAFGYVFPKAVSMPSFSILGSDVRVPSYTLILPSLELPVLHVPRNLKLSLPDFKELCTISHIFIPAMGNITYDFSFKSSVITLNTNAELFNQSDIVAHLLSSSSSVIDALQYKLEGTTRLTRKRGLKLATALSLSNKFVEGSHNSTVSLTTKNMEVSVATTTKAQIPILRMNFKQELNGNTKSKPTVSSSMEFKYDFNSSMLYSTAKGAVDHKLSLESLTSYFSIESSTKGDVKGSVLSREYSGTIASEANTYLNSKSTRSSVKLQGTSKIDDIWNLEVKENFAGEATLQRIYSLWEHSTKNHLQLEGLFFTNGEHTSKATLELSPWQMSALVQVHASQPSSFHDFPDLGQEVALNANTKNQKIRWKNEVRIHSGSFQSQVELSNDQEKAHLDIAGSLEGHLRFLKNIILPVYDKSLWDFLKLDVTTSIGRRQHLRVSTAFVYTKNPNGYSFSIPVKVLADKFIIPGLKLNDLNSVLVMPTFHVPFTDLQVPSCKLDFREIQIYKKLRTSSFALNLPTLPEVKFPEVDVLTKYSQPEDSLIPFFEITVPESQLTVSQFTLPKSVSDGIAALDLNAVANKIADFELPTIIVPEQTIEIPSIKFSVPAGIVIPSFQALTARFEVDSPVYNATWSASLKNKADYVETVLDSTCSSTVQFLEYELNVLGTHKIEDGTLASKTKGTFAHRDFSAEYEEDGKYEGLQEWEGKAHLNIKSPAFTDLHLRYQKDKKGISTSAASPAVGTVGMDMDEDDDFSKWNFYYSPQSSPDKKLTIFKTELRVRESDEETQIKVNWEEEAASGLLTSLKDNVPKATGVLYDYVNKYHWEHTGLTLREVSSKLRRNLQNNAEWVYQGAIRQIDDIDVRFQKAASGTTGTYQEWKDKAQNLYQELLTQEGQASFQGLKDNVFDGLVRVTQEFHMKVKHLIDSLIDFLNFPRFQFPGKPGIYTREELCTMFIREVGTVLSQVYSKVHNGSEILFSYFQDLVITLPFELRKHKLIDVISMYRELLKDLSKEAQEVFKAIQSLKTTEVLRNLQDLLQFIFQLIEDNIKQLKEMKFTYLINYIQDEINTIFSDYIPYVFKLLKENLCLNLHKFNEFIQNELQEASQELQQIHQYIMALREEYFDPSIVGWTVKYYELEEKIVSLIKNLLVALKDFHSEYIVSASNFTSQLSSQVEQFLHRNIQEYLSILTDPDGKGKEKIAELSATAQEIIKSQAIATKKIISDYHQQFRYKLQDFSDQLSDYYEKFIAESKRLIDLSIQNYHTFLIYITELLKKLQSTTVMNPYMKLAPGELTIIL

B1: monoclonal Ab (mAb) AG23 (antibody, mouse IgG1, kappa, V domains shown)
VH: EVQLQQSGPELVKPGASVKISCKASGYSFTGYYMNWVRQSPEKNLEWIGEINPYTGGTTYNQKFKARATLTVDKSSSTAYVQLKSLTSEDSAVYFCVSWDYDLDYWGQGTTLTVSS
VL: QIVLTQSPAFMSASPGEKVTMTCSASSSVSYMHWYQQKSGTSPKRWIYATSKVASGVPARFSGSGSGTSYSLTISSMEAEDAATYYCLQWSSNPYTFGGGTKLEIKR
notes: Murine hybridoma IgG purified over Protein A/G; Used biotinylated in some sandwich ELISAs; also called Clone 23; colony #23
[1]
  binding result: no binding (tested: AG23 1 µg/mL; peptide 10 µg/mL)
[2]
  binding result: no binding (tested: AG23 0.125 µg/mL; antigen 5 µg/mL)
